This note sets out measurements from patent publication US10556944B2, “Fab region-binding peptide” (priority 2013, dated 2020).

In experiment [1] the test system is anti-Her2antibody-Fab (IgG-Fab derived from anti-Her2 monoclonal antibody, Trastuzumab). In words: Biacore 3000 surface plasmon resonance, affinity of SpG-β1 mutants for immobilized IgG-Fab. The experiment is classed as binding, human. To be noted: Table 1, Example 2, GST-fused one-domain peptide; for KA: KA=kon/koff, 1:1 binding model; for KA Vs. Wild: fold of wild-type KA.
Protocol: The Fab fragment was prepared by cleaving a humanized monoclonal IgG formulation as a starting material into a Fab fragment and an Fc fragment by papain, and separating and purifying only the Fab fragment.
Specifically, a humanized monoclonal IgG formulation (Herceptin, manufactured by Chugai Pharmaceutical Co., Ltd., in the case of anti-Her2 monoclonal antibody) was dissolved in a papain digestion buffer (0.1 M AcOH—AcONa, 2 mM EDTA, 1 mM cysteine, pH 5.5). Papain immobilized agarose: Papain Agarose from papaya latex (manufactured by Sigma) was added to the solution and the mixture was incubated at 37° C. for about 8 hours while being mixed with a rotator. The IgG-Fab was collected from flow-through fractions by affinity chromatography using a KanCapA column (manufactured by Kaneka Corporation). Thus, the IgG-Fab was separated and purified from the reaction solution (containing both the Fab fragment and the Fc fragment), which had been separated from the papain immobilized agarose. The separated IgG-Fab solution was purified by gel filtration chromatography using the Superdex 75 10/300 GL column (a standard buffer was used for equilibration and separation) to obtain an IgG-Fab solution.
(§1) The affinity of each of the SpG-β1 mutants produced in Example 1 (2) for the IgG-Fab was analyzed by using a biosensor: Biacore 3000 using surface plasmon resonance principle (manufactured by GE Healthcare Bioscience). In this example, the IgG-Fab produced in Example 2 (1) was immobilized on a sensor chip and each peptide was added on the chip. The interaction between the IgG-Fab and the peptide was detected. The IgG-Fab was immobilized on the sensor chip CM5 by amine coupling using N-hydroxysuccinimide (NHS) and N-ethyl-N′-(3-dimethylaminopropyl)carbodiimide hydrochloride (EDC), and ethanolamine was used for blocking (all the sensor chips and the immobilization reagents were manufactured by GE Healthcare Bioscience). The IgG-Fab solution was about 10-fold diluted in an immobilization buffer (10 mM CH3COOH—CH3COONa, pH 4.5) and the IgG-Fab was immobilized on the sensor chip in accordance with the protocol attached to the Biacore 3000. Further, a reference cell to be used as a negative control was also prepared by immobilizing ethanolamine for another flow cell on the chip after activation by EDC/NHS. Various SpG-31 mutants were appropriately prepared at concentrations of 0.1 to 100 μM by using a running buffer (20 mM NaH2PO4—Na2HPO4, 150 mM NaCl, 0.005% P-20, pH 7.4). Each peptide solution was added on the sensor chip at a flow rate of 40 μL/minute for 60 seconds. A sensorgram of the binding reaction at 25° C. was sequentially plotted during the addition (binding phase, 60 seconds) and after the addition (dissociation phase, 60 seconds). After each sensorgram determination, the sensor chip was regenerated by adding 20 mM NaOH (for 30 seconds).

For experiment [2], the target named is T1, anti-TNFα antibody-Fab (IgG-Fab derived from anti-TNFα monoclonal antibody, adalimumab) (Homo sapiens, UniProt P01834+P01857).
T1 construct: cleaving a humanized monoclonal IgG formulation as a starting material into a Fab fragment and an Fc fragment by papain; purchased
The description is as above. The experiment is classed as binding.
Protocol: as §1
The affinity of the SpG-β1 mutant for the IgG-Fab was measured in the same manner as in the experiment of Example 2.
The affinity of the SpG-β1 mutant for the IgG-Fab was measured in the same manner as in the experiment of Example 3. In this experiment, the measurement was performed on the GST-cleaved type after the GST cleavage (Pep-). Further, not only one domain type (Pep.1d) but also one domain type with Cys at the C-terminus (Pep.1dC) and two domain type with Cys at the C-terminus (Pep.2dC) were used to perform the experiment.

Setting [3] is: Table 2, Example 3, GST-fused one-domain peptide.
Where [4] appears, read: Table 2, Example 3, GST-fused one-domain peptide, 25° C., pH 7.4.
Setting [5] is: Table 2, Example 3, fold of wild-type KA, GST-fused one-domain peptide.
Setting [6] is: Table 3, Example 4, GST-cleaved type (Pep-), constructs Pep.1d, Pep.1dC, Pep.2dC.
Where [7] appears, read: Table 3, Example 4, fold of wild-type KA of the same construct type.

Where no end group is shown, it is not given here.

Consider “K13T/F30L/D36G (TTYKLILNGKTLTGETTTEAVDAATAEKVLKQYANGNGVDGEWTYDDATKTFTVTE)”, for which, in experiment [1], the KA turned out to be 3.17e+06 M⁻¹ and the “KA Vs. Wild” value turned out to be 5.8.
The corresponding values for “K10R/K13T/K28Q/F30L/Q32R: GST-fused one-domain SpG-β1 mutant, amino acid SEQ ID NO: 17 (TTYKLILNGRTLTGETTTEAVDAATAEQVLKRYANDNGVDGEWTYDDATKTFTVTE; also: GST-fused, end not given here)” are 1.72e+06 M⁻¹ and 3.2.
A word on the koff: it is a measure of how fast the partners let go of each other. The substance “K13T/E19I/V21N/K28I/F30L: GST-fused one-domain SpG-β1 mutant, amino acid SEQ ID NO: 37 (TTYKLILNGKTLTGETTTIANDAATAEIVLKQYANDNGVDGEWTYDDATKTFTVTE; also: GST-fused)” gave a KA in experiment [2] (setting [3]) of 3.01e+06 M⁻¹. In experiment [2] (setting [4]), this substance yielded a dissociation rate constant (koff) of 0.0071 s⁻¹ and a kon of 214000 s/M. In addition, in experiment [2] (setting [5]), the “KA Vs. Wild” value was 8.1.
Turning to “K13T/E19I/V39I: GST-fused one-domain SpG-β1 mutant, amino acid SEQ ID NO: 19 (TTYKLILNGKTLTGETTTIAVDAATAEKVFKQYANDNGIDGEWTYDDATKTFTVTE; also: GST-fused)”, the kon in experiment [2] (Table 1, Example 2, GST-fused one-domain peptide, 25° C., pH 7.4) was 145000 s/M; in experiment [1] (25° C., pH 7.4), 222000 s/M. Moreover, the KA in experiment [2] (Table 1, Example 2, GST-fused one-domain peptide, KA=kon/koff, 1:1 binding model) was found to be 2.74e+06 M⁻¹; in experiment [1] it was 2.83e+06 M⁻¹. Further, the “KA Vs. Wild” value in experiment [2] (Table 1, Example 2, fold of wild-type KA, GST-fused one-domain peptide) turned out to be 4.3; in experiment [1] it was 5.2.
Regarding “K13S/E19V/F30L/Y33F: GST-fused one-domain SpG-β1 mutant, amino acid SEQ ID NO: 81 (TTYKLILNGKTLSGETTTVAVDAATAEKVLKQFANDNGVDGEWTYDDATKTFTVTE; also: GST-fused, end not given here)”, in experiment [2] (setting [3]), the KA is 1.54e+06 M⁻¹. In experiment [2] (setting [4]), this substance came in with a koff of 0.0064 s⁻¹ and a kon of 98400 s/M. In experiment [2] (setting [5]), the “KA Vs. Wild” value is listed as 4.1.
The corresponding values for “K13T/E19I/F30L/Y45F/D47Y: GST-fused one-domain SpG-β1 mutant, amino acid SEQ ID NO: 83 (TTYKLILNGKTLTGETTTIAVDAATAEKVLKQYANDNGVDGEWTFDYATKTFTVTE; also: GST-fused)” are 1.39e+06 M⁻¹, 0.007 s⁻¹, 97700 s/M and 3.7.
Take “K13T/V21I/A23T/F30L/E42L: GST-fused one-domain SpG-β1 mutant, amino acid SEQ ID NO: 25 (TTYKLILNGKTLTGETTTEAIDTATAEKVLKQYANDNGVDGLWTYDDATKTFTVTE; also: GST-fused)”: in experiment [2] (setting [3]), the KA was 1.44e+06 M⁻¹. The kon in experiment [2] (setting [4]) turned out to be 85000 s/M. In experiment [2] (setting [5]), the “KA Vs. Wild” value amounted to 3.9.
The corresponding values for “K13T/E19I/K28N/F30L/D40V: GST-fused one-domain SpG-β1 mutant, amino acid SEQ ID NO: 33 (TTYKLILNGKTLTGETTTIAVDAATAENVLKQYANDNGVVGEWTYDDATKTFTVTE; also: GST-fused)” are 1.43e+06 M⁻¹, 108000 s/M and 3.8.
The corresponding values for “K13T/E19I/A23D/V39L: GST-fused one-domain SpG-β1 mutant, amino acid SEQ ID NO: 31 (TTYKLILNGKTLTGETTTIAVDDATAEKVFKQYANDNGLDGEWTYDDATKTFTVTE; also: GST-fused)” are 1.36e+06 M⁻¹, 84300 s/M and 3.6.
With “K13T/E15Q/E19V/F30L/V39L: GST-fused one-domain SpG-β1 mutant, amino acid SEQ ID NO: 61 (TTYKLILNGKTLTGQTTTVAVDAATAEKVLKQYANDNGLDGEWTYDDATKTFTVTE; also: GST-fused)”, in experiment [2] (setting [3]), the KA came out at 1.42e+06 M⁻¹. For the same substance, in experiment [2] (setting [4]), the dissociation rate constant (koff) was found to be 0.0063 s⁻¹ and the kon was 89800 s/M. In addition, the “KA Vs. Wild” value in experiment [2] (setting [5]) came to 3.8.
In experiment [2] (setting [6]), “Pep.1dC K13T/T18A/E19I/V21A/K28I/F30L/Y33F/V39I: SpG-β1 mutant, SEQ ID NO: 85, GST-cleaved one domain type with Cys at the C-terminus (TTYKLILNGKTLTGETTAIAADAATAEIVLKQFANDNGIDGEWTYDDATKTFTVTE; C-terminal Cys; SpG mutant)” gave a KA of 9.11e+06 M⁻¹, a koff of 0.0097 s⁻¹ and a kon of 88300 s/M. Also, the “KA Vs. Wild” value in experiment [2] (setting [7]) was found to be 51.
Substance “K13T/E19I/V21D/K28I/F30L/K31R/D47H: GST-fused one-domain SpG-β1 mutant, amino acid SEQ ID NO: 75 (TTYKLILNGKTLTGETTTIADDAATAEIVLRQYANDNGVDGEWTYDHATKTFTVTE; also: GST-fused)” came in with a KA in experiment [2] (setting [3]) of 1.39e+06 M⁻¹. In experiment [2] (setting [4]), this substance registered a koff of 0.0068 s⁻¹ and a kon of 95000 s/M. Further, the “KA Vs. Wild” value in experiment [2] (setting [5]) is listed as 3.7.
Take “K13T/E19I/F30L/D47A/K50E: GST-fused one-domain SpG-β1 mutant, amino acid SEQ ID NO: 65 (TTYKLILNGKTLTGETTTIAVDAATAEKVLKQYANDNGVDGEWTYDAATETFTVTE; also: GST-fused)”: in experiment [2] (setting [3]), the KA stood at 1.14e+06 M⁻¹. In experiment [2] (setting [4]), this substance returned a koff of 0.0062 s⁻¹ and a kon of 70900 s/M. Besides, the “KA Vs. Wild” value in experiment [2] (setting [5]) worked out at 3.1.
The corresponding values for “K13T/E15Q/E19I/E27D/V39I/D47H: GST-fused one-domain SpG-β1 mutant, amino acid SEQ ID NO: 77 (TTYKLILNGKTLTGQTTTIAVDAATADKVFKQYANDNGIDGEWTYDHATKTFTVTE; also: GST-fused)” are 1.85e+06 M⁻¹, 0.0067 s⁻¹, 124000 s/M and 4.9.
In experiment [2] (setting [6]), “Pep.1dC K13T/E19I/V21D/T25M/F30L/Y33F/N35F/D47A (TTYKLILNGKTLTGETTTIADDAAMAEKVLKQFAFDNGVDGEWTYDAATKTFTVTE)” came in with a KA of 5.47e+06 M⁻¹, a koff of 0.0137 s⁻¹ and a kon of 74700 s/M. The “KA Vs. Wild” value in experiment [2] (setting [7]) turned out to be 31.
The corresponding values for “Pep.2dC K13T/E19I/V21D/T25M/F30L/Y33F/N35F/D47A (TTYKLILNGKTLTGETTTIADDAAMAEKVLKQFAFDNGVDGEWTYDAATKTFTVTE)” are 9.68e+06 M⁻¹, 0.0058 s⁻¹, 55700 s/M and 29.
Substance “K13T/V21A/F30L/Y33F/D40E: GST-fused one-domain SpG-β1 mutant, amino acid SEQ ID NO: 51 (TTYKLILNGKTLTGETTTEAADAATAEKVLKQFANDNGVEGEWTYDDATKTFTVTE; also: GST-fused)” displayed a KA in experiment [2] (setting [3]) of 1.78e+06 M⁻¹. Also, in experiment [2] (setting [4]), the off-rate constant (koff) stood at 0.0078 s⁻¹ and the kon came out at 139000 s/M. For the same substance, in experiment [2] (setting [5]), the “KA Vs. Wild” value turned out to be 4.8.
For “K13T/E19I/D22E/A24T/F30L/Y33F/D47G: GST-fused one-domain SpG-β1 mutant, amino acid SEQ ID NO: 79 (TTYKLILNGKTLTGETTTIAVEATTAEKVLKQFANDNGVDGEWTYDGATKTFTVTE; also: GST-fused)” the same measures were 1.32e+06 M⁻¹, 0.0053 s⁻¹, 69500 s/M and 3.5.
For “K13T/E19I/A23T/T25M/F30L: GST-fused one-domain SpG-β1 mutant, amino acid SEQ ID NO: 49 (TTYKLILNGKTLTGETTTIAVDTAMAEKVLKQYANDNGVDGEWTYDDATKTFTVTE; also: GST-fused)” the same measures were 1.12e+06 M⁻¹, 0.0091 s⁻¹, 102000 s/M and 3.0.
The corresponding values for “K13T/E15T/E19I/T25M/E27G/F30L/N35Y: GST-fused one-domain SpG-β1 mutant, amino acid SEQ ID NO: 63 (TTYKLILNGKTLTGTTTTIAVDAAMAGKVLKQYAYDNGVDGEWTYDDATKTFTVTE; also: GST-fused)” are 1.28e+06 M⁻¹, 0.0063 s⁻¹, 80700 s/M and 3.4.
In experiment [2] (setting [6]), “Pep.2dC K13T/T18A/E19I/V21A/K28I/F30L/Y33F/V39I (TTYKLILNGKTLTGETTAIAADAATAEIVLKQFANDNGIDGEWTYDDATKTFTVTE)” showed a KA of 1.02e+07 M⁻¹, an off-rate constant (koff) of 0.0062 s⁻¹ and a kon of 63900 s/M. In addition, the “KA Vs. Wild” value in experiment [2] (setting [7]) came out at 30.
For the substance “K13T/E19I/F30L/D47N: GST-fused one-domain SpG-β1 mutant, amino acid SEQ ID NO: 43 (TTYKLILNGKTLTGETTTIAVDAATAEKVLKQYANDNGVDGEWTYDNATKTFTVTE; also: GST-fused)”, the KA in experiment [2] (setting [3]) turned out to be 1.27e+06 M⁻¹. For the same substance, in experiment [2] (setting [4]), the dissociation rate constant (koff) was 0.0073 s⁻¹ and the kon amounted to 92600 s/M. Also, the “KA Vs. Wild” value in experiment [2] (setting [5]) turned out to be 3.4.
